Experimental findings from IntAct's records for PubMed 11226162 are described below.

Sequences and labels used below:
B1: Transcription factor HY5 (Arabidopsis thaliana (Mouse-ear cress)), O24646 (parent)
chain: MQEQATSSLAASSLPSSSERSSSSAPHLEIKEGIESDEEIRRVPEFGGEAVGKETSGRESGSATGQERTQATVGESQRKRGRTPAEKENKRLKRLLRNRVSAQQARERKKAYLSELENRVKDLENKNSELEERLSTLQNENQMLRHILKNTTGNKRGGGGGSNADASL
partner: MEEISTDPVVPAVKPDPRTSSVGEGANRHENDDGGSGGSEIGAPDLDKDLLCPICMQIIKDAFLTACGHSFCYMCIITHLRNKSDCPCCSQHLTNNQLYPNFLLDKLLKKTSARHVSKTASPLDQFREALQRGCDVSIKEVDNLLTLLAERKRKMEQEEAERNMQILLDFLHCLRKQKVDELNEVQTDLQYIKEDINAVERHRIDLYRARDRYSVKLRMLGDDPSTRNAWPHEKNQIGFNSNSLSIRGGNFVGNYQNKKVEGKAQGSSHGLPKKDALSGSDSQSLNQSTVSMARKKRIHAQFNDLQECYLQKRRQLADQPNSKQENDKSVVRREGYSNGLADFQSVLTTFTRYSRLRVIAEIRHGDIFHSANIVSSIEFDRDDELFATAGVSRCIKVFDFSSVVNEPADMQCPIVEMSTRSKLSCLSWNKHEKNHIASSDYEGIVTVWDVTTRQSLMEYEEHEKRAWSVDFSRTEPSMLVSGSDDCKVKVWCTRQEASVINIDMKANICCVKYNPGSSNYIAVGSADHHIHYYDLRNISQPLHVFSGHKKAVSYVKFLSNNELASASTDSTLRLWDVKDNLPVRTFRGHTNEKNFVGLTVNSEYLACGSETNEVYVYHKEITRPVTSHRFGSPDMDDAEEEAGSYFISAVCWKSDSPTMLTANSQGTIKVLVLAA
B2: B-box zinc finger protein 25 (Arabidopsis thaliana (Mouse-ear cress)), Q9SID1 (parent)
chain: MKIQCDVCEKAPATLICCADEAALCAKCDVEVHAANKLASKHQRLFLDSLSTKFPPCDICLEKAAFIFCVEDRALLCRDCDEATHAPNTRSANHQRFLATGIRVALSSTSCNQEVEKNHFDPSNQQSLSKPPTQQPAAPSPLWATDEFFSYSDLDCSNKEKEQLDLGELDWLAEMGLFGDQPDQEALPVAEVPELSFSHLAHAHSYNRPMKSNVPNKKQRLEYRYDDEEEHFLVPDLG
partner: B1 partner
B3: E3 ubiquitin-protein ligase COP1 (Arabidopsis thaliana (Mouse-ear cress)), P43254 (parent)
chain: B1 partner
partner: B2 chain
B4: E3 ubiquitin-protein ligase COP1 (Arabidopsis thaliana (Mouse-ear cress)), P43254 (parent)
chain: B1 partner
partner: B1 chain
B5: E3 ubiquitin-protein ligase COP1 (Arabidopsis thaliana (Mouse-ear cress)), P43254 (parent)
chain: B1 partner
partner: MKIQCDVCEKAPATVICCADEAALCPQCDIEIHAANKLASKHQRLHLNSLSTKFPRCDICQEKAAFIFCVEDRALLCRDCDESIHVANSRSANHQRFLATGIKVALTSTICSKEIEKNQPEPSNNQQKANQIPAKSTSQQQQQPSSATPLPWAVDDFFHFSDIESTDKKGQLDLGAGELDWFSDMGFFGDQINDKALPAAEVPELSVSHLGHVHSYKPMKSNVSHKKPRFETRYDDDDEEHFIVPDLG

The variants in the first assay derive from B1. As to conditions: with cop1_arath COP1, P43254.
Turning to MQEQATSSLAASSLPSSSERSSSSAPHLEIKEGIESDEEIRRAAEFGGEAVGKETSGRESGSATGQERTQATVGESQRKRGRTPAEKENKRLKRLLRNRVSAQQARERKKAYLSELENRVKDLENKNSELEERLSTLQNENQMLRHILKNTTGNKRGGGGGSNADASL [V43A;P44A], the “effect of a mutation on the interaction” value was “decreasing interaction”.

In another assay the parent is B2. As to conditions: with cop1_arath COP1, P43254.
Consider MKIQCDVCEKAPATLICCADEAALCAKCDVEVHAANKLASKHQRLFLDSLSTKFPPCDICLEKAAFIFCVEDRALLCRDCDEATHAPNTRSANHQRFLATGIRVALSSTSCNQEVEKNHFDPSNQQSLSKPPTQQPAAPSPLWATDEFFSYSDLDCSNKEKEQLDLGELDWLAEMGLFGDQPDQEALPVAEVPELSFSHLAHAHSYNRPMKSNVPNKKQRLEYRYDDEEEHFLAADLG [V234A;P235A], for which the “effect of a mutation on the interaction” value is “decreasing interaction”.

Another assay covers variants of B3. As to conditions: with bbx25_arath BBX25, Q9SID1.
As to G524E, the “effect of a mutation on the interaction” value is “decreasing interaction”. The same measure, in the same setting: next, E592R: “increasing interaction”; K550E: “decreasing interaction”; W467A: “decreasing interaction”.

In the case of R465E, the “effect of a mutation on the interaction” value is recorded as “decreasing interaction”. Turning to K422E, the “effect of a mutation on the interaction” value was “decreasing interaction”.

In the next assay the parent is B4. As to conditions: with hy5_arath HY5, O24646.
As to E592R, the “effect of a mutation on the interaction” value is “increasing interaction”. In the case of W467A, the “effect of a mutation on the interaction” value is on record as “decreasing interaction”. For the variant K550E, the “effect of a mutation on the interaction” value is on record as “decreasing interaction”. As for G524E, the “effect of a mutation on the interaction” value was “decreasing interaction”. As for K422E, the “effect of a mutation on the interaction” value is listed as “increasing interaction”.

The variants in a further assay derive from B5. As to conditions: with BBX24, Q96288-1.
Turning to K550E, the “effect of a mutation on the interaction” value is on record as “decreasing interaction”.

For the variant R465E, the “effect of a mutation on the interaction” value was “decreasing interaction”. Consider E592R, for which the “effect of a mutation on the interaction” value was “increasing interaction”. Consider K422E, for which the “effect of a mutation on the interaction” value is “decreasing interaction”. The same measure, in the same setting: next, W467A: “decreasing interaction”; G524E: “decreasing interaction”.
